Residue numbers refer to the chain shown, from its start.
B1: SIGLEC-8-40 (antibody, human IgG1, kappa, V domains shown)
VH: EVQLLESGGGLVQPGGSLRLSCAASGFTFSFFDMMWVRQAPGKGLEWVSQISETGRRTYYADSVKGRFTISRDNSKNTLYLQMNSLRAEDTAVYYCATAEDEQGYDYWGQGTLVTVSS
VL: DIQMTQSPSSLSASVGDRVTITCRASQSINFWLRWYQQKPGKAPKLLIYGTTSLESGVPSRFSGSGSGTDFTLTISSLQPEDFATYYCQQTATWPFTFGQGTKVEIKR
notes: tested as expressed and purified mAb; also called SIBLEC8-40
B2: CD117-6 (antibody, human IgG1, kappa, V domains shown)
VH: EVQLLESGGGLVQPGGSLRLSCAASGFTFSAYALTWVRQAPGKGLEWVSAISSSGGSTFYADSVKGRFTISRDNSKNTLYLQMNSLRAEDTAVYYCARVSRGYPRRSDSWGQGTLVTVSS
VL: DIQMTQSPSSLSASVGDRVTTTCRASQGISTYLNWYQQKPGKAPKLLIYGASRLQGGVPSRFSGSGSGTDFTLTISSLQPEDFATYYCQQGYSFPWTFGGGTKVEIKR
notes: detected with anti-human IgG in FACS
B3: SIGLEC-8-1 (antibody, human IgG1, kappa, V domains shown)
VH: EVQLLESGGGLVQPGGSLRLSCAASGFTFSNFPMSWVRQAPGKGLEWVSSISGTGSSTYYADSVKGRFTISRDNSKNTLYLQMNSLRAEDTAVYYCVREGRYFYYAMDVWGQGTLVTVSS
VL: DIQMTQSPSSLSASVGDRVTITCRASQNIAGYLNWYQQKPGKAPKLLIYAASNLHTGVPSRFSGSGSGTDFTLTISSLQPEDFATYYCQQSYSTPLAFGGGTKVEIKR
notes: tested as expressed and purified mAb
B4: SIGLEC-8-58 (antibody, human IgG1, kappa, V domains shown)
VH: EVQLLESGGGLVQPGGSLRLSCAASGFTFRTSAMSWVRQAPGKGLEWVSSVSGSGSSTYYADSVKGRFTISRDNSKNTLYLQMNSLRAEDTAVYYCAKEGSYYYYGMDVWGQGTLVTVSS
VL: B3 VL with N28T, A30G, G31R, A50G, N53S, H55Y, T56S, S93K, L96V, A97T
notes: as for B3
B5: CD117-1 (antibody, human IgG1, kappa, V domains shown)
VH: EVQLLESGGGLVQPGGSLRLSCAASGFTLTSYAMSWVRQAPGKGLEWVSTISGSGGYTYYADSVKGRFTISRDNSKNTLYLQMNSLRAEDTAVYYCARDSGYDRGLDYWGQGTLVTVSS
VL: DIQMTQSPSSLSASVGDRVTITCRASQSVRTYLNWYQQKPGKAPKLLIYDASTLQSGVPSRFSGSGSGTDFTLTISSLQPEDFATYYCQQSYSSSITFGGGTKVEIKR
notes: as for B2
B6: SIGLEC-8-44 (antibody, human IgG1, kappa, V domains shown)
VH: EVQLLESGGGLVQPGGSLRLSCAASGFTISSSAMTWVRQAPGKGLEWVSSISGGGGTTYYADSVKGRFTISRDNSKNTLYLQMNSLRAEDTAVYYCAREGAGYYYGMDVWGQGTLVTVSS
VL: B3 VL with N28S, A30G, G31N, N53R, H55Q, T56G, A97S
notes: as for B3
B7: CD117-7 (antibody, human IgG1, kappa, V domains shown)
VH: EVQLLESGGGLVQPGGSLRLSCAASGFTFSDYAMGWVRQAPGKGLEWVSGIGGSGGSAYYADSVKGRFTISRDNSKNTLYLQMNSLRAEDTAVYYCARGFDSTDGVDYWGQGTLVTVSS
VL: B3 VL with N28S, A30G, G31N, N53D, H55Q, S91G, L96Y, A97T
notes: as for B2
B8: CD117-14 (antibody, human IgG1, kappa, V domains shown)
VH: B7 VH
VL: DIQMTQSPSSLSASVGDRVTITCQTSQSVSSYLNWYQQKPGKAPKLLIYGASRLESGVPSRFSGSGSGTDFTLTISSLQPEDFATYYCQQSYKTPWTFGGGTKVEIKR
notes: as for B2

Experiments:
[1] = target: T1, Sialic acid-binding immunoglobulin-like lectin 8 (SIGLEC-8), antigen of the Carterra SPR studies (UniProt Q9NYZ4 17-363, limits assumed); experiment: Carterra SPR
T1 sequence (Q9NYZ4 17-363 limits assumed): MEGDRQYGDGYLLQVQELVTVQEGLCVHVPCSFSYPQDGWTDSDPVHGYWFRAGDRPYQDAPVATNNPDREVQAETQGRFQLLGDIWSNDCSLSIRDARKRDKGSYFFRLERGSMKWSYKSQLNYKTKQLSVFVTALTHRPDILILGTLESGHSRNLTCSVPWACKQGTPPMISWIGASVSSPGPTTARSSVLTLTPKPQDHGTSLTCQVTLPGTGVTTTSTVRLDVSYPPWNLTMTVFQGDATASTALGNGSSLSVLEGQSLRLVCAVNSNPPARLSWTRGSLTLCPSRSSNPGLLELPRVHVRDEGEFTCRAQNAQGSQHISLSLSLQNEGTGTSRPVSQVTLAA
How it was run: (§1)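 Binding kinetics of antibodies to SIGLEC-8 were measured by surface plasmon resonance on a Carterra instrument. The antibodies came from synthetic antibody libraries panned over four rounds with a bead-based strategy and screened by clonal ELISA. Selected clones were expressed and purified before testing. The read-outs are rate constants, dissociation constants or results from these kinetic runs.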

[2] = target: T1, Sialic acid-binding immunoglobulin-like …; experiment: Carterra SPR kinetics, summary table
How it was run: as §1

[3] = target: T2, SIGLEC-8 transiently expressed on cells (UniProt Q9NYZ4 17-499, limits assumed); experiment: cell binding titration, transient SIGLEC-8 line
T2 construct: whole, on cells; Two cassettes are described (P2A mVenus and direct mVenus fusion); also called the transient line; pTT5-SIGLEC-8 P2A mVenus
T2 sequence (Q9NYZ4 17-499 limits assumed): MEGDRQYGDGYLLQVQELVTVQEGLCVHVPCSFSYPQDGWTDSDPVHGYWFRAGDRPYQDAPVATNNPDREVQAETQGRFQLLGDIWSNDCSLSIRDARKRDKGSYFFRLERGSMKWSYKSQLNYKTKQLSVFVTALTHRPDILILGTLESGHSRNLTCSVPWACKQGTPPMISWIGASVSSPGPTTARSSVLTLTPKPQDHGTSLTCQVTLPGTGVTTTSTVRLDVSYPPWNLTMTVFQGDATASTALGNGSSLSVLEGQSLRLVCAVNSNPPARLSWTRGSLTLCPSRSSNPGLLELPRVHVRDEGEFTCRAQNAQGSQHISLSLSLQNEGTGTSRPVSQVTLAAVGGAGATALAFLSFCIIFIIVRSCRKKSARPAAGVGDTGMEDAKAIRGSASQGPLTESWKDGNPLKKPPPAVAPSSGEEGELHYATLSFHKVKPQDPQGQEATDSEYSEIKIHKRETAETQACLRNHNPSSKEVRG

[4] = target: T1, Sialic acid-binding immunoglobulin-like …; experiment: Carterra SPR kinetics, sensorgram panel
How it was run: as §1

[5] = target: CD117-GFP transiently overexpressed in HEK293T cells (UniProt P10721 26-976); experiment: cell-based or functional assay
[6] = target: T3, CD117 transiently expressed on Expi293 cells (UniProt P10721 26-976, limits assumed); experiment: FACS cell binding, Expi293 transiently expressing CD117
T3 construct: whole, on cells; Two cassettes are described (P2A mVenus and direct mVenus fusion); also called CD117 transient cells; the transient cell line
T3 sequence (P10721 26-976 limits assumed): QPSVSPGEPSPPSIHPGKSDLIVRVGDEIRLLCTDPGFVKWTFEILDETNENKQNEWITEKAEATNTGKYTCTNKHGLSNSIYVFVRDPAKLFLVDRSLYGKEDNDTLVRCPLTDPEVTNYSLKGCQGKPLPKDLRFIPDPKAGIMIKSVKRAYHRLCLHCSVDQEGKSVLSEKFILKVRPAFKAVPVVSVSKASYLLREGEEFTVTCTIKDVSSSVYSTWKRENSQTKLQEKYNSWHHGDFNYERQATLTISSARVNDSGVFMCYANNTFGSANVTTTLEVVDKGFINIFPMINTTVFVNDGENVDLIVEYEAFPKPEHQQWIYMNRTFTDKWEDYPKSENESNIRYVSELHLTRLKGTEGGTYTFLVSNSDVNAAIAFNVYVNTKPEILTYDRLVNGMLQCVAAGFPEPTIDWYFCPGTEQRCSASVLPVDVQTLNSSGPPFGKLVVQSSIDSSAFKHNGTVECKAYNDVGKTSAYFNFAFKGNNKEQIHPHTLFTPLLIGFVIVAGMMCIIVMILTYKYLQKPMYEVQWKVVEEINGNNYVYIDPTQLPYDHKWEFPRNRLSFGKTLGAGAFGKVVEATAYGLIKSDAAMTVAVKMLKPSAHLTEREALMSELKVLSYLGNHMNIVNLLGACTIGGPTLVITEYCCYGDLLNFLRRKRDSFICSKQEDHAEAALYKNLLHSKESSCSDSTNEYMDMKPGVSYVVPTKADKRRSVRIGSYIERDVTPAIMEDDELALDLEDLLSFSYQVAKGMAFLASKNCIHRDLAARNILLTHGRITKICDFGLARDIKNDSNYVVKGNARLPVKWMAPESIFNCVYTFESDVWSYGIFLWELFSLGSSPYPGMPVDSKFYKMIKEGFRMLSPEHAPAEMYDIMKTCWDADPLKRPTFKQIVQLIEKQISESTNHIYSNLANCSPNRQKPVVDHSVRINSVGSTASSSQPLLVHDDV
Protocol: (§2) The transient expression of CD117 was validated with a control antibody, Expi293 (FIGS. 17A-17B). Expi293, […], was transiently transfected with CD117 48-hours post-transfection. The secondary antibody used was APC Goat anti-human IgG (diluted 1:400). 100,000 cells per well were blocked with 1×PBS+0.5% BSA for 1 hour, stained with 100 μL of the primary antibody for 1 hour, and stained with the secondary antibody for one hour, all with 3× washes in between each staining.

[7] = target: T4, SIGLEC-2; experiment: SPR cross-reactivity table
T4 construct: also called CD22
T4 sequence (chain, as listed by the source limits assumed): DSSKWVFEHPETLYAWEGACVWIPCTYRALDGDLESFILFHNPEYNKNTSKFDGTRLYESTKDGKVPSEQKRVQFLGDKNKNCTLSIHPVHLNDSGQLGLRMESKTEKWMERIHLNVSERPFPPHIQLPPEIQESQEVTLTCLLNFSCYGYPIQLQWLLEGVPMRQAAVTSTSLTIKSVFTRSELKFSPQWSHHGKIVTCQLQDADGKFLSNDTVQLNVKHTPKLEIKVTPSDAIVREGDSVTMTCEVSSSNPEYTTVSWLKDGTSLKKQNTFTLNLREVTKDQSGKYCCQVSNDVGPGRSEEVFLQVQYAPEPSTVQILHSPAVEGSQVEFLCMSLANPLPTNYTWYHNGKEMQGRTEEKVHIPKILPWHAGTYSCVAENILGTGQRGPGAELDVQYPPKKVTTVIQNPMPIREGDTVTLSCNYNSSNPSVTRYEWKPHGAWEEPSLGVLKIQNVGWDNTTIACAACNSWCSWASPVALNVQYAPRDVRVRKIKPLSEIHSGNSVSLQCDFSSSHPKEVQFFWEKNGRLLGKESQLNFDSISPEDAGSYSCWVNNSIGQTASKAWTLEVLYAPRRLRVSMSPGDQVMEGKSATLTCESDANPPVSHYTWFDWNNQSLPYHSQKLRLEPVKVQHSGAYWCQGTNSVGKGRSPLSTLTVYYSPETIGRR
How it was run: (§3)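 Clones from synthetic libraries, panned for four rounds using beads and screened by clonal ELISA, were expressed and purified. These anti-SIGLEC-8 antibodies were then checked by surface plasmon resonance on a Carterra instrument for cross-reactivity with related SIGLEC proteins. For each protein tested, a dissociation constant or binding result is given.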

[8] = target: T5, SIGLEC-3; experiment: SPR cross-reactivity table
T5 construct: also called CD33
T5 sequence (receptor, as listed by the source limits assumed): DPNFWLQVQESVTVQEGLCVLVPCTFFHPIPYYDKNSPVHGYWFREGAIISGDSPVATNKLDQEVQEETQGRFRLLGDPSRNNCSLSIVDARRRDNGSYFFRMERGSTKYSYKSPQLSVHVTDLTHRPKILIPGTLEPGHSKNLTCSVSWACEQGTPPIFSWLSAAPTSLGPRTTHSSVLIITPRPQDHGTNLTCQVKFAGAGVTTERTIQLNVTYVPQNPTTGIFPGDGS
How it was run: as §3

[9] = target: T6, SIGLEC-5 (limits assumed); experiment: SPR cross-reactivity table
T6 construct: also called OB-BP-2
T6 receptor: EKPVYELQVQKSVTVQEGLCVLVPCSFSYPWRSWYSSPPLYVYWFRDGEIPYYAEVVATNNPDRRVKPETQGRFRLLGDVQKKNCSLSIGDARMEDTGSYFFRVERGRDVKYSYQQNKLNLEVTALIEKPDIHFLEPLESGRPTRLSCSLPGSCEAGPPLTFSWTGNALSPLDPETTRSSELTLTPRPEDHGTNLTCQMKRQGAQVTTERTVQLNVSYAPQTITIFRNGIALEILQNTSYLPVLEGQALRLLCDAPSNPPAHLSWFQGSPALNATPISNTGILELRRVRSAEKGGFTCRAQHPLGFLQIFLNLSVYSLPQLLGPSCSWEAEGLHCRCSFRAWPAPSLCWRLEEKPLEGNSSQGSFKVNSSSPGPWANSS
How it was run: as §3

[10] = target: T7, SIGLEC-6; experiment: SPR cross-reactivity table
T7 construct: also called OB-BP-1
T7 sequence (receptor, as listed by the source limits assumed): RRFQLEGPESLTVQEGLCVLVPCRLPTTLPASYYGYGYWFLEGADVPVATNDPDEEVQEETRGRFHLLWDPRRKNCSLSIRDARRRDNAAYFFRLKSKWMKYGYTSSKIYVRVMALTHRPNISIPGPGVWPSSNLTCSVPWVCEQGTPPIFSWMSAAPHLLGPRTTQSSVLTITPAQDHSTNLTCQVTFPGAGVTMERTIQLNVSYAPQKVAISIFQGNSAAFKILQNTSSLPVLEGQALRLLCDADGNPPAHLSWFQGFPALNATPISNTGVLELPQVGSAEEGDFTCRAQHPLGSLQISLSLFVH
How it was run: as §3

[11] = target: T8, SIGLEC-7; experiment: SPR cross-reactivity table
T8 construct: also called p75/AIRM1
T8 sequence (receptor, as listed by the source limits assumed): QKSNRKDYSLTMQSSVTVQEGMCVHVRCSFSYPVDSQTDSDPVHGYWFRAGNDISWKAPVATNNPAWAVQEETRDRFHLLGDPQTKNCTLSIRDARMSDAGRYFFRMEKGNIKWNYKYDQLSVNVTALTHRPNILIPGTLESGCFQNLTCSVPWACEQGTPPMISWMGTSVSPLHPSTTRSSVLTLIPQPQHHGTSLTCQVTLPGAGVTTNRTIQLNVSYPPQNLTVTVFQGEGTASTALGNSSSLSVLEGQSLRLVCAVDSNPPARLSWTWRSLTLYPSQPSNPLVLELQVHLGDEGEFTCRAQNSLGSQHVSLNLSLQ
How it was run: as §3

[12] = target: T2, SIGLEC-8 transiently expressed on cells; experiment: flow cytometry titration on cells transiently expressing SIGLEC-8 and on parental Expi293
[13] = target: T9, cyno CD117 (Macaca fascicularis, UniProt A0A7N9CP24); experiment: Carterra SPR, cyno CD117
T9 construct: antigen of the Carterra SPR kinetics; also called cynomolgus monkey CD117
T9 sequence (A0A7N9CP24 entry or part of it): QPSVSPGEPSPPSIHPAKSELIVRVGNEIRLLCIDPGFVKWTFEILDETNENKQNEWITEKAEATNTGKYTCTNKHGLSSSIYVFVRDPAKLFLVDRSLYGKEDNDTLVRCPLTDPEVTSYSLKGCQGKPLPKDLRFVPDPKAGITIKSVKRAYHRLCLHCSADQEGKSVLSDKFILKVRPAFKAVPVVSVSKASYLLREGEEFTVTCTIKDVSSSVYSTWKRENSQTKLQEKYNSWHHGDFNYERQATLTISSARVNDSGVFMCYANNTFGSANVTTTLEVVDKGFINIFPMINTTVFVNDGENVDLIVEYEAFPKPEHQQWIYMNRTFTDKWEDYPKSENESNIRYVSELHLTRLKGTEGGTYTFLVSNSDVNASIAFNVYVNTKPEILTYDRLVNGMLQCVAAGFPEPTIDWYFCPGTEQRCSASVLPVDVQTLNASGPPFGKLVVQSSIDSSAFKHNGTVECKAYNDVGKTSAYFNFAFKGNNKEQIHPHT
Protocol: (§4) To further evaluate the antibodies discovered during the screens, 21 clones were selected for detailed characterization and were analyzed for target binding kinetics by a Carterra SPR instrument. The binding kinetics of the anti-CD117 antibodies for human CD117, cynomolgus monkey CD117, and murine CD117 are shown in FIG. 29A-29B.

[14] = target: T10, Cluster of differentiation 117 (CD117), antigen of epitope binning and ELISA (UniProt P10721 26-520, limits assumed); experiment: Carterra SPR, human CD117
T10 construct: also called tyrosine-protein kinase KIT; mast/stem cell growth factor receptor (SCFR)
T10 sequence (P10721 26-520 limits assumed): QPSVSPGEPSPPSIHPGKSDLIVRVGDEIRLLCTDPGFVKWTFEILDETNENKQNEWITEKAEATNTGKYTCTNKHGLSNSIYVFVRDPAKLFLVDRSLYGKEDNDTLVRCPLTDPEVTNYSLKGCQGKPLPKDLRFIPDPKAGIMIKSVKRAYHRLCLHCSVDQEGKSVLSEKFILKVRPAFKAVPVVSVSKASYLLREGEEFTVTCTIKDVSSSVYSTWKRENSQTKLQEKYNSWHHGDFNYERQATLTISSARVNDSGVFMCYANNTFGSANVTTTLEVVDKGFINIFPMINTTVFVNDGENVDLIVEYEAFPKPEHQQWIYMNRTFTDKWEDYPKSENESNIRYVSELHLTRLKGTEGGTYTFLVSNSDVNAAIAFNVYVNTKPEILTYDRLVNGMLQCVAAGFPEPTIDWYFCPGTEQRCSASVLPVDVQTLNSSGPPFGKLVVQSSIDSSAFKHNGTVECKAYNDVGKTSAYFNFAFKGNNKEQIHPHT
Protocol: as §4

[15] = target: T11, mouse CD117 (mouse, UniProt P05532); experiment: Carterra SPR, mouse CD117
T11 construct: antigen of the Carterra SPR kinetics; also called murine CD117
T11 sequence (receptor, looked up): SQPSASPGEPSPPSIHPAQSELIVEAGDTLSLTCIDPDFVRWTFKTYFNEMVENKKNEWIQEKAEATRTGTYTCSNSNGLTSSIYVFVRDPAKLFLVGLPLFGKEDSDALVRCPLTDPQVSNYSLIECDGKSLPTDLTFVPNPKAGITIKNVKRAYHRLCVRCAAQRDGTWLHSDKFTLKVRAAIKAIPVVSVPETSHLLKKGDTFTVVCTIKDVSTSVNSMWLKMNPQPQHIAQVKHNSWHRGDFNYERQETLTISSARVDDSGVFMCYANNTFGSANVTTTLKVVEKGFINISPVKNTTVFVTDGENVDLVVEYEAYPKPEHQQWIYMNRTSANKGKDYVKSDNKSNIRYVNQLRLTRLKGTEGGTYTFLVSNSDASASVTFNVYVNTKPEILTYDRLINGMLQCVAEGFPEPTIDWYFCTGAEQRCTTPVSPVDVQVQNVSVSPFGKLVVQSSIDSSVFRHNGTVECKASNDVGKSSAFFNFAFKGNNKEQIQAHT
Protocol: as §4

[16] = target: T3, CD117 transiently expressed on Expi293 …; experiment: FACS, MFI expressing / parental cells
Protocol: as §2

Row | Binder | Kd [1] | koff [2] | kon [2] | EC50 [3] | EC50 [6] | Kd [9] | Kd [13] | koff [13] | kon [13] | Kd [14] | koff [14] | kon [14] | binding result [15] | MFI Ratio [16] | also measured
1 | B1 | 0.0225 nM | 1e-05 s⁻¹ | 444000 M⁻¹ s⁻¹ | 0.609 nM | – | – | – | – | – | – | – | – | – | – | Kd [4]: < 0.023 nM
2 | B2 | – | – | – | – | 0.116 nM | – | – | – | – | – | – | – | – | – | IC50, inhibition of the SCF-stimulated SRF reporter signal (FFLuc/RLuc); same row prints log(IC50) -8.147 and Span -0.2026 [5]: 7.13e-09 M
3 | B3 | 0.292 nM | 4.38e-05 s⁻¹ | 150000 M⁻¹ s⁻¹ | 1.26 nM | – | 5.8 nM | – | – | – | – | – | – | – | – | Kd [7]: 196 nM; Kd [8]: 135 nM; Kd [10]: 7 nM; Kd [11]: 5240 nM; EC50 (read off the curve) [12]: ~5 nM
4 | B4 | 0.97 nM | 0.000127 s⁻¹ | 131000 M⁻¹ s⁻¹ | 0.914 nM | – | 169 nM | – | – | – | – | – | – | – | – | binding result [7]: no binding; binding result [8]: no binding; binding result [10]: no binding; binding result [11]: no binding
5 | B5 | – | – | – | – | 23.8 nM | – | 508 nM | 0.16 s⁻¹ | 315000 M⁻¹ s⁻¹ | 189 nM | 0.1 s⁻¹ | 530000 M⁻¹ s⁻¹ | no binding | 26.6 | IC50, inhibition of the SCF-stimulated SRF reporter signal (FFLuc/RLuc); same row prints log(IC50) -9.366 and Span -0.2174 [5]: 4.31e-10 M
6 | B6 | 0.517 nM | 0.000138 s⁻¹ | 267000 M⁻¹ s⁻¹ | 1.07 nM | – | 6.7 nM | – | – | – | – | – | – | – | – | binding result [7]: no binding; binding result [8]: no binding; Kd [10]: 35.2 nM; binding result [11]: no binding
7 | B7 | – | – | – | – | 4.01 nM | – | 14.2 nM | 0.0159 s⁻¹ | 1.12e+06 M⁻¹ s⁻¹ | 22 nM | 0.0194 s⁻¹ | 882000 M⁻¹ s⁻¹ | no binding | 21.9 | IC50, inhibition of the SCF-stimulated SRF reporter signal (FFLuc/RLuc); same row prints log(IC50) -9.451 and Span -0.1049 [5]: 3.54e-10 M
8 | B8 | – | – | – | – | 0.0718 nM | – | 2.34 nM | 0.00146 s⁻¹ | 624000 M⁻¹ s⁻¹ | 2.53 nM | 0.00177 s⁻¹ | 698000 M⁻¹ s⁻¹ | no binding | 12.2 | IC50, inhibition of the SCF-stimulated SRF reporter signal (FFLuc/RLuc); same row prints log(IC50) -9.67 and Span -0.1208 [5]: 2.14e-10 M

Source: patent US20260001953A1 (TWIST BIOSCIENCE, published 2026)
